Legend:
human CD19 [1] = target: T1, human CD19 (human, UniProt P15391 20-556); assay: flow cytometry, binding to CD19 on RS4;11 cells, MFI against Log[Ab], nM
T1 construct: also called B-cell surface antigen B4; B-cell antigen CD19
T1 sequence: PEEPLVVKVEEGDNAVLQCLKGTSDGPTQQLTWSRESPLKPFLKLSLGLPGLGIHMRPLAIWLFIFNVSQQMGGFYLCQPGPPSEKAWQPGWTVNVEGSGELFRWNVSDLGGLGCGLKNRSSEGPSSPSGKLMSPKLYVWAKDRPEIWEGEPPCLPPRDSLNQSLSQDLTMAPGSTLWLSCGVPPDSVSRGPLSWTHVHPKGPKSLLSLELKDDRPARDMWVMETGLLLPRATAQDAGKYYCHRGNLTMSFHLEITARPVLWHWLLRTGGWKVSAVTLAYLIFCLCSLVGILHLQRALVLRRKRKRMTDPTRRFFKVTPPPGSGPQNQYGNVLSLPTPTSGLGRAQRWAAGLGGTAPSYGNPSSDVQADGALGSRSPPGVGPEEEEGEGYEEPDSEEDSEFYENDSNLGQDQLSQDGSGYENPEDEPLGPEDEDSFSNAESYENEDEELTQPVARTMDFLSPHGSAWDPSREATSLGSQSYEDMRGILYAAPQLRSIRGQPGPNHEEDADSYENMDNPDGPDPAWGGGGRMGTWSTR

human CD19 [2] = target: T1, human CD19; assay: DELFIA competition on Raji cells: unlabeled antibody competes with Eu-labeled anti-CD19 for surface CD19 [lower panel]
human CD19 [3] = target: T1, human CD19; assay: DELFIA competition on Raji cells: unlabeled antibody competes with Eu-labeled anti-CD19 for surface CD19 [upper panel]
cynomolgus CD19 = target: T2, cynomolgus CD19 (cynomolgus (Macaca fascicularis), UniProt A0A2K5W8L9 20-557); assay: flow cytometry on monkey blood lymphocytes (method for the murine antibody not detailed)
T2 construct: whole, on cells; also called CD19 from cynomolgus monkey (Macaca fascicularis)
T2 sequence: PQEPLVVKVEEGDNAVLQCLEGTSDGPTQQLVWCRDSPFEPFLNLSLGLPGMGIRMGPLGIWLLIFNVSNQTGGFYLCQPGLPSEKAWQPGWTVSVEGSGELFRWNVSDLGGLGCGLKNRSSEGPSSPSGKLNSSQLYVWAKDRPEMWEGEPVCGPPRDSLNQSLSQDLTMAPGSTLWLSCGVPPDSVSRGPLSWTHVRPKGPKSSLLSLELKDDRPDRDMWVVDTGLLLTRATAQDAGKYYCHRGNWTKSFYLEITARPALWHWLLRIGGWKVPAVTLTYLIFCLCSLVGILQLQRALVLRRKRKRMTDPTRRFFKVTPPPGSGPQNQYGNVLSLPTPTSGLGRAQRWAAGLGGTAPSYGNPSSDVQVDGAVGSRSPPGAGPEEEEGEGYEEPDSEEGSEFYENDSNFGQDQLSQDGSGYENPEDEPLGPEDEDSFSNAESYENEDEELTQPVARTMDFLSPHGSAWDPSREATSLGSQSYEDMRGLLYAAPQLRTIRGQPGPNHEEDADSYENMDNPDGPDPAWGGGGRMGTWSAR

rhesus CD19 = target: T3, rhesus CD19 (rhesus (Macaca mulatta), UniProt F7F486 20-557); assay: as above
T3 construct: whole, on cells; also called CD19 from rhesus monkey (Macaca mulatta)
T3 sequence: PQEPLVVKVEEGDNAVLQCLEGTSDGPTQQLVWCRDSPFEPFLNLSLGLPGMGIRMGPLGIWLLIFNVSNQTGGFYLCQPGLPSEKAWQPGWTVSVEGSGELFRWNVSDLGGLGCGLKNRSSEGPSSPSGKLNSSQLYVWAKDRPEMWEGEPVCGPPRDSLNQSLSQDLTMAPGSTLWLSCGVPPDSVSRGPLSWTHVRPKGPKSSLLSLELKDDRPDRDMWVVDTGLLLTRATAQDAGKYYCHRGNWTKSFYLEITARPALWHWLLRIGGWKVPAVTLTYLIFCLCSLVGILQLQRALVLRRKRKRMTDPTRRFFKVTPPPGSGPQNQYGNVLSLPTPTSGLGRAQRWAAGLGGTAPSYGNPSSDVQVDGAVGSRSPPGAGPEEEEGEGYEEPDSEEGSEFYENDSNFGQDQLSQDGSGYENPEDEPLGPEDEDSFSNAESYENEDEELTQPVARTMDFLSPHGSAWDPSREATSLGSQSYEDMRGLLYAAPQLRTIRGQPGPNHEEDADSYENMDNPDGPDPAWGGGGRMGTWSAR

[4] = target: T4, human V158 FcγRIIIa (FcγR-His) (human, UniProt P08637 17-208, limits assumed); assay: Biacore SPR; IgG captured on protein A/G, FcγR-His injected; 1:1 model
T4 construct: Soluble His-tagged receptor injected as analyte in Biacore; not shown: His tag ('FcγR-His')
T4 sequence (P08637 17-208 F176V limits assumed): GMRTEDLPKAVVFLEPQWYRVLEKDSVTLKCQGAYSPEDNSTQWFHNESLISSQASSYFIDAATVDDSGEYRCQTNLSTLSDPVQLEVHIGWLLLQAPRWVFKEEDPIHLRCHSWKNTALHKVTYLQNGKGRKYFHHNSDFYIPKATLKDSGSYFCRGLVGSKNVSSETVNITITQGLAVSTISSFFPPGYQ
Experimental: (§1) Briefly, protein A/G was coupled to a flow cell of a CM5 chip. IgG was first diluted to 25 nM and immobilized to protein A/G channel to ˜1000 RUs. FcγR-His was serially diluted and injected at […] for 2 min followed by dissociation for 3 min. To determine KD the resulting sensorgrams are “group-fitted” using the 1:1 interaction model available in BlAevaluation software.

FcγRIIa - H131 = target: T5, FcγRIIa - H131 (human, UniProt P12318); assay: Biacore SPR: IgG captured on protein A/G (CM5 chip), FcγR-His injected; KD from 1:1 group fit, plotted as -log(KD)
T5 construct: soluble His-tagged receptor; also called H131 FcγRIIa (FcγR-His)
T5 sequence (receptor chain, looked up): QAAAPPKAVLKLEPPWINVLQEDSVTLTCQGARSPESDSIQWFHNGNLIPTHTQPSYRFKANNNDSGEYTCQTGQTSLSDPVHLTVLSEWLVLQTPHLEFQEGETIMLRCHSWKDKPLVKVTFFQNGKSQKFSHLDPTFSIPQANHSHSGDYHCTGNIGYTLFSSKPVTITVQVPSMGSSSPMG
Experimental: as §1

FcγRIIa - R131 = target: T6, FcγRIIa - R131 (human, UniProt P12318); assay: as above
T6 construct: soluble His-tagged receptor; also called R131 FcγRIIa (FcγR-His)
T6 sequence (receptor chain, looked up): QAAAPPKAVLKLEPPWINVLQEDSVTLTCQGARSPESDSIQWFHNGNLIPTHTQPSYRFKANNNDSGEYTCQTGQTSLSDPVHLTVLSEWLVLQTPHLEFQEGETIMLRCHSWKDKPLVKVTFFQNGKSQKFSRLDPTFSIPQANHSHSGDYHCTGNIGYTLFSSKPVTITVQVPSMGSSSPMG
Experimental: as §1

[5] = target: T7, human F158 FcγRIIIa (FcγR-His) (human, UniProt P08637 17-208, limits assumed); assay: Biacore SPR; IgG captured on protein A/G, FcγR-His injected; 1:1 model
T7 construct: Soluble His-tagged receptor injected as analyte in Biacore; not shown: His tag ('FcγR-His')
T7 sequence (P08637 17-208 limits assumed): as the sequence (P08637 17-208 F176V limits assumed) above, with V160F counted along it
Experimental: as §1

human CD19 [6] = target: T1, human CD19; assay: DELFIA time-resolved fluorometry competition on Raji cells; competitor tracer is Eu-labeled anti-CD19 (H0L0)
Experimental: Affinities of enhanced effector function anti-CD19 variants were determined by using the DELFIA® system (PerkinElmer Life Sciences) which is based on Time-Resolved Fluorometry (TRF). […] The assay is essentially applied as a competition assay for screening anti-CD19 antibodies of different affinities.

[7] = target: T4, human V158 FcγRIIIa (FcγR-His); assay: Biacore SPR; IgG captured on protein A/G, FcγR-His injected; reference is 4G7 IgG1 (WT)
Experimental: as §1

B1: 4G7 H1L1 Hybrid S239D/I332E (antibody, human IgG1, kappa, V domains shown)
VH: EVQLVESGGGLVKPGGSLKLSCAASGYTFTSYVMHWVRQAPGKGLEWIGYINPYNDGTKYNEKFQGRVTISSDKSISTAYMELSSLRSEDTAMYYCARGTYYYGSRVFDYWGQGTLVTVSS
VL: DIVMTQSPATLSLSPGERATLSCRSSKSLLNSNGNTYLYWFQQKPGQSPQLLIYRMSNLASGVPDRFSGSGSGTEFTLTISSLEPEDFAVYYCMQHLEYPFTFGAGTKLEIKR
notes: also called H1L1 mAb
- EC50 (read off the curve) (human CD19 [1]): ~6 nM

B2: H0L0 (antibody)
heavy chain: EVQLQQSGPELIKPGASVKMSCKASGYTFTSYVMHWVKQKPGQGLEWIGYINPYNDGTKYNEKFKGKATLTSDKSSSTAYMELSSLTSEDSAVYYCARGTYYYGSRVFDYWGQGTTLTVSS
light chain: DIVMTQAAPSIPVTPGESVSISCRSSKSLLNSNGNTYLYWFLQRPGQSPQLLIYRMSNLASGVPDRFSGSGSGTAFTLRISRVEAEDVGVYYCMQHLEYPFTFGAGTKLELK
notes: original 4G7 variable regions; also called 4G7 H0L0
- IC50 (read off the curve) (human CD19 [2]): ~8 nM
- IC50 (read off the curve) (human CD19 [3]): ~5 nM

B3: H4L0 (antibody, V domains shown)
VH: EVQLQQSGPEVKKPGTSVKVSCKASGYTFTSYVMHWVRQAPGKGLVWVSYINPYNDGTKYNESLKSRVTISSDKSISTAYLQMNSLRAEDTAVYYCARGTYYYGSRVFDYWGQGTLVTVSS
VL: DIVMTQAAPSIPVTPGESVSISCRSSKSLLNSNGNTYLYWFLQRPGQSPQLLIYRMSNLASGVPDRFSGSGSGTAFTLRISRVEAEDVGVYYCMQHLEYPFTFGAGTKLELK
notes: also called 4G7 H4L0
- IC50 (read off the curve) (human CD19 [2]): ~10 nM

B4: parental murine antibody of the anti-CD19 (4G7) (antibody, V domains shown)
VH: EVQLQQSGPELIKPGASVKMSCKASGYTFTSYVMHWVKQKPGQGLEWIGYINPYNDGTKYNEKFKGKATLTSDKSSSTAYMELSSLTSEDSAVYYCARGTYYYGSRVFDYWGQGTTLTVSS
VL: DIVMTQAAPSIPVTPGESVSISCRSSKSLLNSNGNTYLYWFLQRPGQSPQLLIYRMSNLASGVPDRFSGSGSGTAFTLRISRVEAEDVGVYYCMQHLEYPFTFGAGTKLELK
notes: also called its parental murine antibody
- binding result (cynomolgus CD19): no binding
- binding result (rhesus CD19): no binding

B5: 4G7 IgG1 (chimeric: murine 4G7 H0/L0 variable regions, human IgG1 and kappa constant regions) (antibody)
heavy: not shown
light: DIVMTQAAPSIPVTPGESVSISCRSSKSLLNSNGNTYLYWFLQRPGQSPQLLIYRMSNLASGVPDRFSGSGSGTAFTLRISRVEAEDVGVYYCMQHLEYPFTFGAGTKLELKRTVAAPSVFIFPPSDEQLKSGTASVVCLLNNFYPREAKVQWKVDNALQSGNSQESVTEQDSKDSTYSLSSTLTLSKADYEKHKVYACEVTHQGLSSPVTKSFNRGEC
notes: also called 4G7 IgG1 antibody; WT IgG1 antibody; copies: 2 + 2
- Kd [4]: ~240 nM
- binding result (FcγRIIa - H131): binds
- binding result (FcγRIIa - R131): binds

B6: 4G7 Hybrid S239D/I332E (murine 4G7 H0/L0 variable regions, hybrid IgG1/IgG2 constant region with S239D/I332E) (antibody)
heavy: EVQLQQSGPELIKPGASVKMSCKASGYTFTSYVMHWVKQKPGQGLEWIGYINPYNDGTKYNEKFKGKATLTSDKSSSTAYMELSSLTSEDSAVYYCARGTYYYGSRVFDYWGQGTTLTVSSASTKGPSVFPLAPSSKSTSGGTAALGCLVKDYFPEPVTVSWNSGALTSGVHTFPAVLQSSGLYSLSSVVTVPSSSLGTQTYICNVNHKPSNTKVDKKVEPKSCDKTHTCPPCPAPELLGGPDVFLFPPKPKDTLMISRTPEVTCVVVDVSHEDPEVQFNWYVDGVEVHNAKTKPREEQFNSTFRVVSVLTVVHQDWLNGKEYKCKVSNKALPAPEEKTISKTKGQPREPQVYTLPPSREEMTKNQVSLTCLVKGFYPSDIAVEWESNGQPENNYKTTPPMLDSDGSFFLYSKLTVDKSRWQQGNVFSCSVMHEALHNHYTQKSLSLSPGK
light: DIVMTQAAPSIPVTPGESVSISCRSSKSLLNSNGNTYLYWFLQRPGQSPQLLIYRMSNLASGVPDRFSGSGSGTAFTLRISRVEAEDVGVYYCMQHLEYPFTFGAGTKLELKRTVAAPSVFIFPPSDEQLKSGTASVVCLLNNFYPREAKVQWKVDNALQSGNSQESVTEQDSKDSTYSLSSTLTLSKADYEKHKVYACEVTHQGLSSPVTKSFNRGEC
notes: also called effector function enhanced anti-CD19; enhanced effector function anti-CD19; copies: 2 + 2
- Kd [5]: ~16.7 nM
- Kd [4]: ~4.7 nM
- EC50 (human CD19 [6]): 1.2 nM
- affinity enhancement relative to WT [7]: ~50 fold
- binding result (FcγRIIa - H131): binds
- binding result (FcγRIIa - R131): binds

B7: H2L3 (antibody, V domains shown)
VH: QVQLQESGSGLVKPGGSLRLSCAASGYTFTSYVMHWVRQAPGKGLEWMGYINPYNDGTKYNESLKSRVTISSDKSISTAYMELSSLRAEDTAVYYCARGTYYYGSRVFDYWGQGTLVTVSS
VL: DIVMTQSPATLSVSPGERATISCRSSKSLLNSNGNTYLYWFLQKPGQSPQLLIYRMSNLASGVPDRFSGSGSGTDFTLTISRVEAEDVGVYYCMQHLEYPFTFGAGTKLEIK
notes: also called 4G7 H2L3
- binding result (human CD19 [2]): binds

B8: H3L3 (antibody, V domains shown)
VH: EVQLVESGGGLVQPGRSLRLSCAASGYTFTSYVMHWVRQMPGKGLEWMGYINPYNDGTKYNEKFQGRVTITSDKSTSTAYMELSRLRSDDTAVYYCARGTYYYGSRVFDYWGQGTLVTVSS
VL: DIVMTQSPATLSVSPGERATISCRSSKSLLNSNGNTYLYWFLQKPGQSPQLLIYRMSNLASGVPDRFSGSGSGTDFTLTISRVEAEDVGVYYCMQHLEYPFTFGAGTKLEIK
notes: also called 4G7 H3L3
- IC50 (read off the curve) (human CD19 [2]): ~20 nM

B9: H4L3 (antibody, V domains shown)
VH: EVQLQQSGPEVKKPGTSVKVSCKASGYTFTSYVMHWVRQAPGKGLVWVSYINPYNDGTKYNESLKSRVTISSDKSISTAYLQMNSLRAEDTAVYYCARGTYYYGSRVFDYWGQGTLVTVSS
VL: DIVMTQSPATLSVSPGERATISCRSSKSLLNSNGNTYLYWFLQKPGQSPQLLIYRMSNLASGVPDRFSGSGSGTDFTLTISRVEAEDVGVYYCMQHLEYPFTFGAGTKLEIK
notes: also called 4G7 H4L3
- binding result (human CD19 [2]): binds

— patent publication US20100272723A1 (Xencor, published 2010)
